Test results: patent publication US20250281630A1 (TORAY INDUSTRIES, published 2025)

T1: mouse CAPRIN-1 on mouse cancer cells (mouse, UniProt Q60865 2-707)
T1 construct: whole, on cells
T1 sequence (looked up): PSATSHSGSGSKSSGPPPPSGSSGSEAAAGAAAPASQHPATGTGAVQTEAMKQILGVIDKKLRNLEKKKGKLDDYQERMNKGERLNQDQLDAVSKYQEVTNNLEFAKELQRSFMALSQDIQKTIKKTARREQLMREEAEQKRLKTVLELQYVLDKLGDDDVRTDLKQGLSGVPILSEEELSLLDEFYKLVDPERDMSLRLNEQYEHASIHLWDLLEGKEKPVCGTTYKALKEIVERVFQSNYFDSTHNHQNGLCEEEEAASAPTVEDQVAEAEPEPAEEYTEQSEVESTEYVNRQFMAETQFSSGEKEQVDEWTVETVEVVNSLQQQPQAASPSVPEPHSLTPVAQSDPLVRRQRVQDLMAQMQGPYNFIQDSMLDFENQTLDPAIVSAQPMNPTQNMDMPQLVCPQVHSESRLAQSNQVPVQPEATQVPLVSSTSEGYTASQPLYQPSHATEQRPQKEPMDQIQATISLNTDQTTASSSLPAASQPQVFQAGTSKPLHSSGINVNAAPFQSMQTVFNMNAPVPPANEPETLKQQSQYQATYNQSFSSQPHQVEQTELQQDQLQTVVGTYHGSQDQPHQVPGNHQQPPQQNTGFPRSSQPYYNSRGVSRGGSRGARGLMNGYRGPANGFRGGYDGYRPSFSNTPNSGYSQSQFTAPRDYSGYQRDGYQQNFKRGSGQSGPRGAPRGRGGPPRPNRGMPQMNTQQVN

T2: human CAPRIN-1 on the cell membrane surface of human cancer cells (human, UniProt Q14444 2-709)
T2 construct: whole, on cells
T2 sequence (looked up): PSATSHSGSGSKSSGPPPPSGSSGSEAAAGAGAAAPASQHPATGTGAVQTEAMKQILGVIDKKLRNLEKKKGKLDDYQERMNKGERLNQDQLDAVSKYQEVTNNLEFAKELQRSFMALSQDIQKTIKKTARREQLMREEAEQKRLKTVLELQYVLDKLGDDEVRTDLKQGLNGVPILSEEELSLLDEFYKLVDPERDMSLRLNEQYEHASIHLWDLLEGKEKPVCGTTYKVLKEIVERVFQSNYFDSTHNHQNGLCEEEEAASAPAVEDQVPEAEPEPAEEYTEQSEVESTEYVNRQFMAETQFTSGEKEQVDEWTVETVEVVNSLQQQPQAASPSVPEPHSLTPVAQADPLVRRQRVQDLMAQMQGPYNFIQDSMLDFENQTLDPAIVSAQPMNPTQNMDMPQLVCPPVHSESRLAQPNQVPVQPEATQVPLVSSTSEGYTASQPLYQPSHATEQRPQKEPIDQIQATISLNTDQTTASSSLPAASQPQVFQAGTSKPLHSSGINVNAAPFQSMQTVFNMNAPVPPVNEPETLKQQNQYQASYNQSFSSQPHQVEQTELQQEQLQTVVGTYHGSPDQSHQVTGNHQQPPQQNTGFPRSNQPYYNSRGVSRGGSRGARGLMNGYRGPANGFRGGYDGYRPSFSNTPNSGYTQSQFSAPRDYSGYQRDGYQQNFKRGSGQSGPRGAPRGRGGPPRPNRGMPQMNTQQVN


Legend:
[1] = target: T1, mouse CAPRIN-1 on mouse cancer cells; experiment: flow cytometry, Renca and 4T1 cells
[2] = target: T2, human CAPRIN-1 on the cell membrane …; experiment: flow cytometry, BT474 cells
Procedure: The tube was left at 4° C. for 1 hour. After washing with PBS, Alexa 488-labeled anti-rabbit IgG (H+L) diluted 100-fold with PBS(-) containing 0.5% FBS (0.5% FBS-PBS(-)) was added thereto, and the tube was left at 4° C. for 1 hour. After washing with 0.5% FBS-PBS(-), the cells were reacted with BD Horizon Fixable Viability Stain (FVS) Reagents (FVS450, Becton, Dickinson and Company) to stain dead cells, and the fluorescence intensity was then measured using FACSFortessa™ (Becton, Dickinson and Company).

Row | Binder | binding result [1] | binding result [2]
1 | Conjugate 20 (antibody, human IgG1, V domains shown, human IgG1 constant regions; also called conjugate with MMAE using humanized antibody #14) VH: DAELVKPGASVKISCKASGYTFTDHSIHWVQQKPEQGLEWIGYISPGNGNIKYNEKFKGKATLTADKSSSTAYMQLNSLTSEDSAVYFCKRSLGRGGPYYFDYWGQGTTVTVSS VL: DIVLTQAAPSLPVTPGESVSISCRSSKSLLHSNGNTYLYWFLQRPGQSPQLLIYRMSNLASGVPDRFSGSGSGTAFTLRISRVEAEDVGVYYCMQHREYPVTFGSGPN | binds | binds
2 | Conjugate 42 (antibody, human IgG1, V domains shown, human IgG1 constant regions; also called conjugate with MMAE using humanized antibody #36) VH: EVQLVESGGGLVQPGGSLRLSCAASGFSLSSHSLGWVRQAPGKGLEWIGDIRSGGSAYYANWAKGRFTISRDNSKNTLYLQMNSLRAEDTAVYYCTRTNGPSDLTNRLDLWGQGTLVTVSS VL: QVLTQSPSSLSASVGDRVTINCQASQSLYNNENLAWFQQKPGKVPKRLIYGASTLASGVSSRFSGSGSGTEFTLTISSLQCEDFAIYYCLGEFSCGSADCFAFGGGTKVEIK | binds | binds
3 | Conjugate 44 (antibody, human IgG1, V domains shown, human IgG1 constant regions; also called conjugate with MMAE using humanized antibody #38) VH: EVQLVESGGGLVQPGGSLRLSCAASGFSLSSHSLGWVRQAPGKGLEWIGDIRSGGSAYYANWAKGRFTISRDNSKNTLYLQMNSLRAEDTAVYYCTRTNGPSDLTNRLDLWGQGTLVTVSS VL: EQVLTQSPSSLSASVGDRVTINCQASQSLYNNENLAWFQQKPGKVPKRLIYGASTLASGVSSRFSGSGSGTEFTLTISNLQPEDFAIYYCLGEFSCGSADCFAFGGGTKVEIK | binds | binds
4 | Conjugate 43 (antibody, human IgG1, V domains shown, human IgG1 constant regions; also called conjugate with MMAE using humanized antibody #37) VH: EVQLVESGGGLVQPGGSLRLSCAASGFSLSSHSLGWVRQAPGKGLEWIGDIRSGGSAYYANWAKGRFTISRDNSKNTLYLQMNSLRAEDTAVYFCTRTNGPSDLTNRLDLWGQGTLVTVSS VL: QVLTQSPSSLSASVGDRVTINCQASQSLYNNENLAWFQQKPGKVPKRLIYGASTLASGVSSRFSGSGSGTEFTLTISSLQCEDFAIYYCLGEFSCGSADCFAFGGGTKVEIK | binds | binds
5 | Conjugate 123 (antibody, V domains shown, human IgG1 constant regions; also called conjugate with MMAE using humanized antibody #37) VH: EVQLVESGGGLVQPGGSLRLSCAASGFSLSSHSLGWVRQAPGKGLEWIGDIRSGGSAYYANWAKGRFTISRDNSKNTLYLQMNSLRAEDTAVYFCTRTNGPSDLTNRLDLWGQGTLVTVSS VL: QVLTQSPSSLSASVGDRVTINCQASQSLYNNENLAWFQQKPGKVPKRLIYGASTLASGVSSRFSGSGSGTEFTLTISSLQCEDFAIYYCLGEFSCGSADCFAFGGGTKVEIK | binds | binds
6 | Conjugate 47 (antibody, human IgG1, V domains shown, human IgG1 constant regions; also called conjugate with MMAE using humanized antibody #41) VH: EVQLVESGGGLVQPGGSLRLSCAASGFSLSSHSLGWVRQAPGKGLEWIGDIRSGGSAYYANWAKGRFTISRDNSKNTLYLQMNSLRAEDTAVYFCTRTNGPSDLTNRLDLWGQGTLVTVSS VL: EQVLTQSPSSLSASVGDRVTINCQASQSLYNNENLAWFQQKPGKVPKRLIYGASTLASGVSSRFSGSGSGTEFTLTISNLQPEDFAIYYCLGEFSCGSADCFAFGGGTKVEIK | binds | binds
7 | Conjugate 127 (antibody, V domains shown, human IgG1 constant regions; also called conjugate with MMAE using humanized antibody #41) VH: EVQLVESGGGLVQPGGSLRLSCAASGFSLSSHSLGWVRQAPGKGLEWIGDIRSGGSAYYANWAKGRFTISRDNSKNTLYLQMNSLRAEDTAVYFCTRTNGPSDLTNRLDLWGQGTLVTVSS VL: EQVLTQSPSSLSASVGDRVTINCQASQSLYNNENLAWFQQKPGKVPKRLIYGASTLASGVSSRFSGSGSGTEFTLTISNLQPEDFAIYYCLGEFSCGSADCFAFGGGTKVEIK | binds | binds
8 | Conjugate 88 (antibody, V domains shown, human IgG1 constant regions; also called conjugate with MMAE using humanized antibody #2) VH: EQSLVESGGGLVQPGGSLRLSCAASGFSLSSHSLGWVRQAPGKGLEWIGDIRSGGSAYYANWAKGRFTISRDNSKNTLYLQMNSLRAEDTAVYYCTRTNGPSDLTNRLDLWGQGTLVTVSS VL: QVLTQSPSSLSASVGDRVTINCQASQSLYNNENLAWFQQKPGKVPKRLIYGASTLASGVSSRFSGSGSGTEFTLTISSLQCEDFAIYYCLGEFSCGSADCFAFGGGTKVEIK | binds | binds
9 | Conjugate 45 (antibody, human IgG1, V domains shown, human IgG1 constant regions; also called conjugate with MMAE using humanized antibody #39) VH: EVQLVESGGGLVQPGGSLRLSCAASGFSLSSHSLGWVRQAPGKGLEWIGDIRSGGSAYYANWAKGRFTISRDNSKNTLYLQMNSLRAEDTAVYFCTRTNGPSDLTNRLDLWGQGTLVTVSS VL: EIVLTQSPSSLSASVGDRVTINCQASQSLYNNENLAWFQQKPGKVPKRLIYGASTLASGVSSRFSGSGSGTEFTLTISNLQPEDFATYYCLGEFSCGSADCFAFGGGTKVEIK | binds | binds
10 | Conjugate 125 (antibody, V domains shown, human IgG1 constant regions; also called conjugate with MMAE using humanized antibody #39) VH: EVQLVESGGGLVQPGGSLRLSCAASGFSLSSHSLGWVRQAPGKGLEWIGDIRSGGSAYYANWAKGRFTISRDNSKNTLYLQMNSLRAEDTAVYFCTRTNGPSDLTNRLDLWGQGTLVTVSS VL: EIVLTQSPSSLSASVGDRVTINCQASQSLYNNENLAWFQQKPGKVPKRLIYGASTLASGVSSRFSGSGSGTEFTLTISNLQPEDFATYYCLGEFSCGSADCFAFGGGTKVEIK | binds | binds

Second part, the binder after the results:

Row | binding result [1] | binding result [2] | Binder
11 | binds | binds | Conjugate 15 (antibody, human IgG1, V domains shown, human IgG1 constant regions; also called conjugate with MMAE using humanized antibody #9) VH: AVTLDESGGGLQTPGGALSLVCKASGFTFSGYDMLWVRQAPGKGLEWVAGIGSTGGGTDYGAAVKGRATISRDNGQSTVRLQLNNLRAEDTATYYCAKVAGGCNSGYCRDSPGSIDAWGHGTEVIVS VL: AVTQQPASVSANPGETVKITCSGGGSRNYYGWYQQKSPGSVPVTVIYYDDQRPSNIPSRFSGALSGSTSTLTITGVQADDEAVYFCGSADSNTYEGSFGAGTTLTVL
12 | binds | binds | Conjugate 126 (antibody, V domains shown, human IgG1 constant regions; also called conjugate with MMAE using humanized antibody #40) VH: EVQLVESGGGLVQPGGSLRLSCAASGFSLSSHSLGWVRQAPGKGLEWIGDIRSGGSAYYANWAKGRFTISRDNSKNTLYLQMNSLRAEDTAVYYCTRTNGPSDLTNRLDLWGQGTLVTVSS VL: EIVLTQSPSSLSASVGDRVTINCQASQSLYNNENLAWFQQKPGKVPKRLIYGASTLASGVSSRFSGSGSGTEFTLTISNLQPEDFATYYCLGEFSCGSADCFAFGGGTKVEIK
13 | binds | binds | Conjugate 46 (antibody, human IgG1, V domains shown, human IgG1 constant regions; also called conjugate with MMAE using humanized antibody #40) VH: EVQLVESGGGLVQPGGSLRLSCAASGFSLSSHSLGWVRQAPGKGLEWIGDIRSGGSAYYANWAKGRFTISRDNSKNTLYLQMNSLRAEDTAVYYCTRTNGPSDLTNRLDLWGQGTLVTVSS VL: EIVLTQSPSSLSASVGDRVTINCQASQSLYNNENLAWFQQKPGKVPKRLIYGASTLASGVSSRFSGSGSGTEFTLTISNLQPEDFATYYCLGEFSCGSADCFAFGGGTKVEIK
14 | binds | binds | Conjugate 8 (antibody, human IgG1, V domains shown, human IgG1 constant regions; also called conjugate with MMAE using humanized antibody #2) VH: EQSLVESGGGLVQPGGSLRLSCAASGFSLSSHSLGWVRQAPGKGLEWIGDIRSGGSAYYANWAKGRFTISRDNSKNTLYLQMNSLRAEDTAVYYCTRTNGPSDLTNRLDLWGQGTLVTVSS VL: QVLTQSPSSLSASVGDRVTINCQASQSLYNNENLAWFQQKPGKVPKRLIYGASTLASGVSSRFSGSGSGTEFTLTISSLQCEDFAIYYCLGEFSCGSADCFAFGGGTKVEIK
15 | binds | binds | Conjugate 19 (antibody, human IgG1, V domains shown, human IgG1 constant regions; also called conjugate with MMAE using humanized antibody #13) VH: GAELVRSGASVKMSCKASGYSFTDYNMYWVKQTPGQGLEWIGYIYPGNGGTNYNQKFKGKATLTADTSSSTAYMQISSLTSEDSAVYFCARDYDDGGYAMDYWGQGTTVTVSS VL: DIQMTQSPASLSASVGETVTITCRASGNIHNYLTWYQQKQGKSPQLLVYNAKTLADGVPSRFSGSGSGTQYSLKINRLQPEDFGSYYCQHFWNIPWTFGGGTKLNSR
